Patent US20260158160A1 (MACFARLANE BURNET INSTITUTE FOR MEDICAL RESEARCH AND PUBLIC …, published 2026)

Target: T1, SARS-CoV-2 spike protein expressed on Ramos-S cells (SARS-CoV-2, UniProt P0DTC2 14-1273)
T1 construct: whole, on cells; also called S protein; Ramos cells expressing transfected spike protein
Test: flow cytometry on Ramos-S cells

B1: CC40.8-H429F (antibody)
heavy: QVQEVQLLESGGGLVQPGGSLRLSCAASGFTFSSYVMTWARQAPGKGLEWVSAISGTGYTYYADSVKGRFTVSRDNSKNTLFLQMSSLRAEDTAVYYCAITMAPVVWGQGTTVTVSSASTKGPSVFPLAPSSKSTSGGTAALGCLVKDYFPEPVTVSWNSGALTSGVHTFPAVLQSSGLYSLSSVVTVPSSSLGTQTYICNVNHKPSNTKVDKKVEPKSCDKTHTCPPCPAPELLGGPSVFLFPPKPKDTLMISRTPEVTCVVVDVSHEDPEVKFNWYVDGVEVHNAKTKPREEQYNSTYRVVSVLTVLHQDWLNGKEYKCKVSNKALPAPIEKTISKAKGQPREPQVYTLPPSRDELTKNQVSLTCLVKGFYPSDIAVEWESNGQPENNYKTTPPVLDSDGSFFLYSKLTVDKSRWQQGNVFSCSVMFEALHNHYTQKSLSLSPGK
light: SYELTQPPSVSVSPGQTARITCSGDALPKRYAYWYQQKSGQAPILVIYEDKKRPSGIPERLSGSKSGTVATLTISGAQVEDEADYYCYSTDSSGNHAVFGGGTQLTVLGQPKAAPSVFIFPPSDEQLKSGTASVVCLLNNFYPREAKVQWKVDNALQSGNSQESVTEQDSKDSTYSLSSTLTLSKADYEKHKVYACEVTHQGLSSPVTKSFNRGEC
notes: also called CC40.8-HF
B1: binds.
